From the supplement of paper PMC10567573

B1: LOXL2 (parent)
chain: YVEVKEGKTWKQICDKHWTAKNSR
B2: COX4I1 (parent)
chain: FDKEWVAKQTKRMLDMKVNPIQGL

Variants of: B1
Test: protein stability index of a GFP-peptide fusion (GPS, HEK-293T) (PSI 1-6); higher = more stable
Conditions: c terminus: a fixed tail appended
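Note: lentivirally expressed fusions sorted by FACS into six bins by GFP to DsRed ratio, PSI derived from sequencing read proportions per bin multiplied by bin number.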

Protein stability index of substitutions, site by site:
K21: S 1.99 | T 2.5 | R 3.06 | W 1.96 | D 2.34 | F 3.06 | E 3.16 | V 2.03 | A 2.3 | L 1.95 | G 2.14 | P 2.67 | I 1.68 | N 2.15 | M 2.13 | Y 2.14 | H 1.85
R24: S 3.24 | F 2.94 | V 2.2 | M 2.09 | C 2.72 | H 3.07 | A 2.42 | P 1.69 | Y 3.45 | E 2.33 | Q 2.33 | T 3.49 | W 1.79 | I 1.74 | K 2.76 | L 2.46 | N 2.48 | D 1.91 | G 1.53
N22: E 2.25 | Y 2.23 | V 2.79 | S 1.92 | K 3.05 | M 2.35 | W 3.39 | D 2.42 | G 2.13 | Q 1.82 | T 2.54 | P 1.89 | L 1.78 | H 2.99 | R 1.8 | F 2.29 | I 2.8 | C 1.97 | A 3.24
T19: M 1.99 | N 2.95 | Y 2.29 | Q 3.17 | V 2.26 | R 1.77 | W 2.64 | S 1.72 | P 2.11
A20: D 2.59 | E 1.98 | Y 2.27 | M 2.35 | V 2.11 | S 2.73 | H 2.07 | I 1.99 | Q 2.54 | K 2.25 | T 2.03 | F 1.9 | C 2.46 | G 1.75 | P 1.67 | L 2.16 | R 2.71
S23: E 2.17 | F 1.19 | N 1.71 | H 2 | K 2.88 | M 1.97 | D 2.41 | G 1.83 | V 2.15 | A 2.97 | I 2.82 | T 2.33 | C 2.73 | L 2.42 | R 2.09 | P 1.94 | Y 2.64

Variants of: B2
Test: as above
Conditions: c terminus: a fixed tail appended

Protein stability index of substitutions, site by site:
N19: H 1.7 | Q 1.64 | D 1.79 | P 2.32 | S 1.97 | V 2.22 | C 2.23 | R 1.71 | L 1.26 | T 1.16 | A 1.75 | G 1.94 | F 1.77
R12: N 1.36 | A 1.88 | S 3.04 | M 1.6 | L 3.17 | E 2.59 | V 2.27 | Q 2.84 | Y 1.56 | C 1.43 | H 1.97 | T 1.54
M13: F 2.12 | N 2.23 | R 1.64 | C 2.17 | A 1.13 | G 1.64 | K 1.88
L24: Y 1.59 | P 2.08 | S 2.31 | W 1.73 | H 2.55 | T 1.35 | G 2.86 | R 2.09
K17: R 1.95 | W 2.4 | F 2.16 | V 2.03 | A 1.96 | D 2.49 | Y 2.14 | N 1.88 | P 2.24 | L 2.57 | G 1.51
T10: G 2.67 | V 1.49 | H 1.69 | N 1.73 | C 1.7 | M 1.91 | R 2.35 | P 2 | E 2.21 | A 1.41 | S 1.08 | Y 1.6
V18: F 1.42 | P 2.13 | Y 2.87 | E 1.95 | R 2.19 | H 1.94 | W 1.99 | T 2.24 | D 1.53 | C 1.88
D2: N 2.57 | V 1.26 | R 1.27 | L 1.09 | A 2.65 | T 1.35 | K 1.62 | G 1.55 | M 1.93
V6: N 1.79 | S 1.96 | G 2.31 | H 2.06 | M 1.93 | A 3.39 | K 2.28 | Y 1.6
F1: W 2.17 | M 3.23 | Y 1.71 | P 3.44 | C 2.62 | H 3.13 | S 3.34 | E 3.19 | A 3.42
M16: S 1.88 | Y 1.75 | A 1.48 | W 2.02 | H 1.42 | I 2.1
E4: F 1.63 | Q 1.53 | W 1.66 | D 1.9 | H 2.35 | R 1.84 | M 1.26 | T 2.34
I21: G 1.75 | Y 1.75 | M 2.63 | W 2.17 | P 1.63 | E 1.66 | D 1.93 | Q 1.78 | R 1.61 | S 1.32 | K 2.06
K3: H 1.52 | G 1.91 | V 1.68 | T 2.1 | D 2.57 | C 2.12 | F 1.87 | M 1.64 | R 1.66 | W 1.29
K11: M 1.9 | Y 3.38 | I 1.8 | W 1.52 | H 1.7 | G 1.62 | P 2.32 | N 1.54 | D 1.54 | L 1.61
Q22: N 1.77 | D 2.31 | H 1.93 | G 1.63 | T 1.91 | V 2.58 | I 2.79 | M 2.69
D15: N 1.58 | E 1.68 | C 1.66 | F 1.84 | G 1.75 | Q 1.6 | L 1.64 | A 1.62
G23: Y 1.92 | D 1.9 | A 1.43 | R 1.48 | W 1.88 | L 1.35 | K 2.02 | S 1.7 | H 1.4 | N 1.8 | P 1.39 | C 3.51
Q9: I 1.6 | W 1.8 | S 2.46 | T 2.87 | H 1.77 | M 2.54 | L 2.08 | V 1.46 | G 2.65 | E 2.26
K8: P 2.33 | Q 1.18 | F 1.99 | C 2.68 | S 1.75 | W 3.04 | G 1.87
P20: V 1.73 | C 1.73 | H 1.78 | I 1.56 | F 1.71 | Y 2.05 | E 1.59 | K 1.55 | R 1.68 | A 1.61
A7: G 2.28 | M 1.81 | N 1.65 | W 1.77 | C 1.27 | S 1.11 | Q 1.84 | F 1.56 | E 1.77 | T 1.76 | R 2.45 | I 1.68 | H 1.74 | D 2.32
L14: P 1.65 | R 1.82 | C 1.38 | M 1.47 | A 2.35 | H 1.65 | I 2.1 | Q 1.23 | Y 2.42 | S 1.54
W5: C 3.78 | Q 3.85 | L 3 | M 3.52 | R 3.98 | F 2.8 | A 3.96 | N 3.86 | P 3.63 | S 3.61 | H 2.84 | D 4.22 | T 2.87
